According to doi:10.1101/641969v1:

Key:
purified protein [1] = substrate: O=C(O)CCC(=O)C(=O)O; test: purified protein; details: 0.2 mM NADH, 0.2 mM yNA, pH 8, 28 °C
purified protein [2] = substrate: CC(=O)C(=O)O; test: purified protein; type: biochemical, Staphylococcus aureus; details: 0.2 mM NADPH, 0.2 mM xNA, pH 7, 28 °C

B1: PaCntM (Pseudomonas aeruginosa PAO1) (protein)
chain: MNAADESLGNVLLVGLGAVAIQVALDLRRHGAGRLGALNHPGRRSQRIAEALARGACLQLEGQGQHRWLSGNAALDVFHQDPAELRDDWQTLVLCVPADSYLDVVRGLPWERLGGVRTLLLVSAFIGANLLVRSALPAGCQATVLSLSSYYAATKVIDETQPLRALTKAVKRRVYLGSSRPDCPARETWRRVLAGSGVEVVPLATPEAAEGRNVTTYVHSPFFLGEFALARILSEQGPPGFMYKLYPEGPITPGAIGAMRRLWCELSELLRRMGAEPLNLLRFLNDDNYPVHETMLPRASIDGFAEAGAERQEYLLFVRYAALLVDPFSPADEQGRHFDFSAVPFRRVSRDEDGLWRLPRVPLEDYRKLALIVALAAHFDLAMPQARSLLASYENAVSRFIDCQGASQCHPSLYPIDSRPAADAIYRQWCSTC
Km (purified protein [1]): 133 ± 39 µM | kcat (purified protein [1]): 0.27 ± 0.02 s⁻¹

B2: SaCntM (Staphylococcus aureus subsp. aureus Mu50) (protein)
chain: MSKLLMIGTGPVAIQLANICYLKSDYEIDMVGRASTSEKSKRLYQAYKKEKQFEVKIQNEAHQHLEGKFEINRLYKDVKNVKGEYETVVMACTADAYYDTLQQLSLETLQSVKHVILISPTFGSQMIVEQFMSKFSQDIEVISFSTYLGDTRIVDKEAPNHVLTTGVKKKLYMGSTHSNSTMCQRISALAEQLKIQLEVVESPLHAETRNSSLYVHPPLFMNDFSLKAIFEGTDVPVYVYKLFPEGPITMTLIREMRLMWKEMMAILQAFRVPSVNLLQFMVKENYPVRPETLDEGDIEHFEILPDILQEYLLYVRYTAILIDPFSQPDENGHYFDFSAVPFKQVYKNEQDVVQIPRMPSEDYYRTAMIQHIGKMLGIKTPMIDQFLTRYEASCQAYKDMHQDQQLSSQFNTNLFEGDKALVTKFLEINRTLS
Km (purified protein [2]): 51 ± 6 µM | kcat (purified protein [2]): 1.00 ± 0.02 s⁻¹
